The supplement of paper PMC10065799, “High-throughput profiling of sequence recognition by tyrosine kinases and SH2 domains using bacterial peptide display” (eLife, 2023)
Each block holds one sequence with its values, some of them ahead of it.

Legend:
[1] = molecular target: Jak2 (UniProt O60674); experiment: phosphorylation enrichment, bacterial display (enrichment ratio); higher = better substrate or ligand; peptides without Tyr show the background
[2] = molecular target: Fes (UniProt P07332); experiment: as above
[3] = molecular target: FGFR3 (UniProt P22607); experiment: as above
[4] = molecular target: EPHB2 (UniProt P29323); experiment: as above
[5] = molecular target: Fyn (UniProt P06241); experiment: as above
[6] = molecular target: EPHB1 (UniProt P54762); experiment: as above
[7] = system: c-Src; experiment: as above
[8] = molecular target: Hck (UniProt P08631); experiment: as above
[9] = molecular target: MERTK (UniProt Q12866); experiment: as above
[10] = molecular target: FGFR1 (UniProt P11362); experiment: as above
[11] = system: AncSZ; experiment: as above
[12] = system: Fer (mouse); experiment: as above
[13] = system: c-Abl (mouse); experiment: as above
[14] = molecular target: c-Src SH2; experiment: SH2 binding enrichment of the phosphorylated peptide, bacterial display (enrichment ratio); higher = better substrate or ligand; peptides without Tyr show the background
[15] = molecular target: Grb2 SH2 (UniProt P62993); experiment: as above
[16] = molecular target: SHP2-C SH2; experiment: as above
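Throughout, for SH2 binding enrichment of the phosphorylated peptide, bacterial display: peptide library displayed on the E. coli surface as eCPX fusions, selected cells deep-sequenced, score is each peptide's frequency after selection divided by its frequency in the input.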
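Throughout, for phosphorylation enrichment, bacterial display: 11-residue human phosphosite peptides and single-mutation variants displayed on the E. coli surface, counted by deep sequencing, each peptide's frequency after selection divided by its frequency in the unselected input library; frequency after pTyr selection over input frequency; kinase dosed for 20-30% of maximal phosphorylation in three min.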

Chain of Fes (P07332 whole entry, looked up): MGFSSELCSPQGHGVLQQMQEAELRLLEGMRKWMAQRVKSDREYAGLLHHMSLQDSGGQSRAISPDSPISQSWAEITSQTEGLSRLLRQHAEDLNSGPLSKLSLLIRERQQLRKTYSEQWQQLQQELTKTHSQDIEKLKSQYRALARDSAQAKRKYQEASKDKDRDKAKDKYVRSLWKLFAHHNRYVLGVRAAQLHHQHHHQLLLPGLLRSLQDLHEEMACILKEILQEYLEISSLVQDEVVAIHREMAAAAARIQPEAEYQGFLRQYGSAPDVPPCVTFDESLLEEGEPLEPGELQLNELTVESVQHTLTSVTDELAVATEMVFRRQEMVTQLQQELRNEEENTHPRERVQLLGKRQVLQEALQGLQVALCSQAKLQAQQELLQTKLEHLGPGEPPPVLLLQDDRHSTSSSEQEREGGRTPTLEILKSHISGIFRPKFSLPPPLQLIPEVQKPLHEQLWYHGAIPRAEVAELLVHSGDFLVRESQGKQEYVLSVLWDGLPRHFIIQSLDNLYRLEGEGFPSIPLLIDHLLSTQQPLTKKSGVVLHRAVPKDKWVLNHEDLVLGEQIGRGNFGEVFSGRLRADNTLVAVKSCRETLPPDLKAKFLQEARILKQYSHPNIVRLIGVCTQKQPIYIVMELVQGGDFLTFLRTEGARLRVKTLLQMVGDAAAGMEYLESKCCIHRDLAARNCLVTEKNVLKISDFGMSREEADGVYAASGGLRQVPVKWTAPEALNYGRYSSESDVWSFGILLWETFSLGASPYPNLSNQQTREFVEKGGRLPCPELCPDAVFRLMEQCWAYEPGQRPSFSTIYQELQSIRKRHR
Chain of Fyn (P06241 whole entry, looked up): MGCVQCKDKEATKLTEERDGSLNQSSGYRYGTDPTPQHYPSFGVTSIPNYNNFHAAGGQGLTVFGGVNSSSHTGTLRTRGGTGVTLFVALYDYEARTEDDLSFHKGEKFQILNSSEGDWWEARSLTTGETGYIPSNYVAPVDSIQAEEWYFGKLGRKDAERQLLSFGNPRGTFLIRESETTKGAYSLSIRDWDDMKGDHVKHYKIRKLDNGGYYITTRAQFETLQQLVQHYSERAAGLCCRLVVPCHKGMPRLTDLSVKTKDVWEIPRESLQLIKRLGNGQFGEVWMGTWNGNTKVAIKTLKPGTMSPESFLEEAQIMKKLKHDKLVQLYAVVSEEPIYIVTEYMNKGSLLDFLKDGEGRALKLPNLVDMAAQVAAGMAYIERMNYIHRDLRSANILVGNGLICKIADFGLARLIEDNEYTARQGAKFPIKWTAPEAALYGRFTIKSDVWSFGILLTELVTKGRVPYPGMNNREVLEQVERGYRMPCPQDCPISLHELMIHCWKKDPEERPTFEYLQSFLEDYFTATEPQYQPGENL
Chain of FGFR1 (P11362 whole entry, looked up): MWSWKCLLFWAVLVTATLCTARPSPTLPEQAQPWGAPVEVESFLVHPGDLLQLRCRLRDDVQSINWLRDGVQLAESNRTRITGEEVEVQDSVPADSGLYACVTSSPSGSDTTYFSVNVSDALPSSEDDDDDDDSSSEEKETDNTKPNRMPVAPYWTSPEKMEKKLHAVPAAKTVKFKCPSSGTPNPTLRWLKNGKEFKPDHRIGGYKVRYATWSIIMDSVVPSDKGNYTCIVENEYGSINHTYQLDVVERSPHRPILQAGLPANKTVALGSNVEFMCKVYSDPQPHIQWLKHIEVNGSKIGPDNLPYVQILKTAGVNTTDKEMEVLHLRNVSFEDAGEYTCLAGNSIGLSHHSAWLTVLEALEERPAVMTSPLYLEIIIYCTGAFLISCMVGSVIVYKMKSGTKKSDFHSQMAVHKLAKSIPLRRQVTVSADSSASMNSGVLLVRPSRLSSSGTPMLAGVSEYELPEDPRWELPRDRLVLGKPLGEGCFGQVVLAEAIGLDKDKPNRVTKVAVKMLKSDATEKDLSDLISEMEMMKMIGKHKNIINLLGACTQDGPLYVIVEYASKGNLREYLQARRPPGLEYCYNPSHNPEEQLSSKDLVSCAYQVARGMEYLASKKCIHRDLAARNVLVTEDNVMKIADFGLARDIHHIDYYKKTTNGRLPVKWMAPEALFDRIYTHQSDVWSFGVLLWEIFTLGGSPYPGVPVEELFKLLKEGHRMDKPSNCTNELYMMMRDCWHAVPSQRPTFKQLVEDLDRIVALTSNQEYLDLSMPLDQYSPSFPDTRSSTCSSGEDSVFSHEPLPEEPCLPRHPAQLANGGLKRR
Chain of MERTK (Q12866 whole entry, looked up): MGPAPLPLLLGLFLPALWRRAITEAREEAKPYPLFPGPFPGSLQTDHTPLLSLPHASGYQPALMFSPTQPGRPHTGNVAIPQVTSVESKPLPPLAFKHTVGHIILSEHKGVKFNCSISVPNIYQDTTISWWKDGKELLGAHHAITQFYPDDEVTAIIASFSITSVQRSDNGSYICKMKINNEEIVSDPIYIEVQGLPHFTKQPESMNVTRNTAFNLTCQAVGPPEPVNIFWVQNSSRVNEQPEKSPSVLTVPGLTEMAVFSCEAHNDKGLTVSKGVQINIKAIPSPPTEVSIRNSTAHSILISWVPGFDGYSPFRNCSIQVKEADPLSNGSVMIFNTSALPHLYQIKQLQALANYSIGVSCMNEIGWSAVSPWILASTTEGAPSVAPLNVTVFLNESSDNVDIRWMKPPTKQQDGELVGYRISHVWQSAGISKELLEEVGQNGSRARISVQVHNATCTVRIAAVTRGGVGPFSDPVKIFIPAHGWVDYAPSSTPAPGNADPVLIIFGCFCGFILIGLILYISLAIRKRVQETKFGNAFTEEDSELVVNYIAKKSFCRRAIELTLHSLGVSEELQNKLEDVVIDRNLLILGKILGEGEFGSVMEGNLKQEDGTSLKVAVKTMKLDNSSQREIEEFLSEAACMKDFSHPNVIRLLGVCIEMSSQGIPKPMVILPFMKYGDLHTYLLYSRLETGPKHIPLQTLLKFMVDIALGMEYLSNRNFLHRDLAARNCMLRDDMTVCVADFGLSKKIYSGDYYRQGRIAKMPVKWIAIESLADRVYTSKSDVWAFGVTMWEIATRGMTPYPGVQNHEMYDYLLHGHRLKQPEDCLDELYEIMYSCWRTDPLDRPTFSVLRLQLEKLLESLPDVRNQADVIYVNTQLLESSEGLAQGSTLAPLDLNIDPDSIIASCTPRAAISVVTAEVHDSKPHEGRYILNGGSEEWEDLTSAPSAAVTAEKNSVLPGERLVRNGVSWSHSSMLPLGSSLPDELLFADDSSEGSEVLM
Chain of EPHB2 (P29323 whole entry, looked up): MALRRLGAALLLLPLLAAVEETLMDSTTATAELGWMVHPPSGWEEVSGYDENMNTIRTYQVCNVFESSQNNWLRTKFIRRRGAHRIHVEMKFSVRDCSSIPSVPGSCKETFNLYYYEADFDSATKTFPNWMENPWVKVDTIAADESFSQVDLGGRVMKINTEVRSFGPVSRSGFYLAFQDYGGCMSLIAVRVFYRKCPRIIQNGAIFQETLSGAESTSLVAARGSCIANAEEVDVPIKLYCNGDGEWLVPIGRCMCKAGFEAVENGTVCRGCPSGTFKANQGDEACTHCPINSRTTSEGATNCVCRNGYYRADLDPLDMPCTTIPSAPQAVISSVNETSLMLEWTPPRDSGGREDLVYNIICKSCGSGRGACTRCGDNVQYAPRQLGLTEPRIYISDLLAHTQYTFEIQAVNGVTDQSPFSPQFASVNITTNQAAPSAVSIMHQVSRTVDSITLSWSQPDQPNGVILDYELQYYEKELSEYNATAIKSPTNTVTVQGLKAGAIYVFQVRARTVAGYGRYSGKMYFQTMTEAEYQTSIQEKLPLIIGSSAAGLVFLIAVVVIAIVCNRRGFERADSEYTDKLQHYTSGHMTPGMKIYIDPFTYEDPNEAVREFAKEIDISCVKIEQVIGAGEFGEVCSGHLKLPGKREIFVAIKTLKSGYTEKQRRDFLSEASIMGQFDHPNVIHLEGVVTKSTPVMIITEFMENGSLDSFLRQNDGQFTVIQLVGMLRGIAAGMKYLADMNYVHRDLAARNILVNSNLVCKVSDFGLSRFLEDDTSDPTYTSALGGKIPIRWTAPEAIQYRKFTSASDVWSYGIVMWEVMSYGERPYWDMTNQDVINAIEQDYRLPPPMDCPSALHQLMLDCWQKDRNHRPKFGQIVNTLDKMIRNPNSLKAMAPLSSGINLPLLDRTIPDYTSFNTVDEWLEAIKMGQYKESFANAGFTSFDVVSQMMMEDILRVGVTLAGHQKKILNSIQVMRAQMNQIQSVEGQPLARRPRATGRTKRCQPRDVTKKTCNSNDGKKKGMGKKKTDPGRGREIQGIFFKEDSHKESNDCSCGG
Chain of FGFR3 (P22607 whole entry, looked up): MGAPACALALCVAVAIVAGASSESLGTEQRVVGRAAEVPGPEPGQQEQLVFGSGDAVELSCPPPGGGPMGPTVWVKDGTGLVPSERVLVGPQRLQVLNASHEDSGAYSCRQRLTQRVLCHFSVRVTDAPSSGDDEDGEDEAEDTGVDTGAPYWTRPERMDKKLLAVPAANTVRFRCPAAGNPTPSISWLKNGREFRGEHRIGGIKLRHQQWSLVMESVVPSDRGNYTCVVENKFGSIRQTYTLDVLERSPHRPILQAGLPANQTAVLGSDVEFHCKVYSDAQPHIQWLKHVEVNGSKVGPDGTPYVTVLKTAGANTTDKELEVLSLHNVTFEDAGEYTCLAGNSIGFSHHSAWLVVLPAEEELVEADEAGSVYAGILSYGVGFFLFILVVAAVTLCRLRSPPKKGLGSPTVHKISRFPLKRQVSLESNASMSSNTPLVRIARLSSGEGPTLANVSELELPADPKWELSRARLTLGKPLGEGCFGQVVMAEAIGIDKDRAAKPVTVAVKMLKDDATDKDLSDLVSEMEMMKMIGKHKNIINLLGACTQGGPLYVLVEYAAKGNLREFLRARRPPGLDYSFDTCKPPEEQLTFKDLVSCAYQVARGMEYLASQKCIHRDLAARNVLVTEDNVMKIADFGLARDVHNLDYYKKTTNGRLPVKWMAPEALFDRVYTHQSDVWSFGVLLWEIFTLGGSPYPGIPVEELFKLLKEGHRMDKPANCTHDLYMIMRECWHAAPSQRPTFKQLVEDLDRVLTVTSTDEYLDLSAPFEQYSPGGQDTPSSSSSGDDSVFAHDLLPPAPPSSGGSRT

Sequence: KYRREYILSLE [GPC3_Y299_W296R]
- phosphorylation enrichment [1]: 0.628
- phosphorylation enrichment [2]: 0.698
- phosphorylation enrichment [3]: 0.491
- phosphorylation enrichment [4]: 0.465
- phosphorylation enrichment [5]: 0.468
- phosphorylation enrichment [6]: 0.364
- phosphorylation enrichment [7]: 0.613
- phosphorylation enrichment [8]: 0.49
- phosphorylation enrichment [9]: 0.576
- phosphorylation enrichment [10]: 0.427
- phosphorylation enrichment [11]: 0.754
- phosphorylation enrichment [12]: 0.534
- phosphorylation enrichment [13]: 0.511
- SH2 binding enrichment [14]: 0.374
- SH2 binding enrichment [15]: 0.774
- SH2 binding enrichment [16]: 0.606

Sequence: STKELYEKFMI
- phosphorylation enrichment [1]: 0.619
- phosphorylation enrichment [2]: 0.857
- phosphorylation enrichment [3]: 0.492
- phosphorylation enrichment [4]: 0.414
- phosphorylation enrichment [5]: 0.724
- phosphorylation enrichment [6]: 0.411
- phosphorylation enrichment [7]: 1.01
- phosphorylation enrichment [8]: 1.01
- phosphorylation enrichment [9]: 0.872
- phosphorylation enrichment [10]: 0.409
- phosphorylation enrichment [11]: 0.725
- phosphorylation enrichment [12]: 6.97
- phosphorylation enrichment [13]: 0.6
- SH2 binding enrichment [14]: 0.615
- SH2 binding enrichment [15]: 0.915
- SH2 binding enrichment [16]: 0.709

Sequence: CTHDLYMIMRE [FGFR3_Y724]
- phosphorylation enrichment [1]: 1.44
- phosphorylation enrichment [2]: 1.46
- phosphorylation enrichment [3]: 0.837
- phosphorylation enrichment [4]: 1.03
- phosphorylation enrichment [5]: 0.564
- phosphorylation enrichment [6]: 2.05
- phosphorylation enrichment [7]: 2.22
- phosphorylation enrichment [8]: 0.971
- phosphorylation enrichment [9]: 1.18
- phosphorylation enrichment [10]: 0.634
- phosphorylation enrichment [11]: 1.31
- phosphorylation enrichment [12]: 0.667
- phosphorylation enrichment [13]: 0.848
- SH2 binding enrichment [14]: 0.573
- SH2 binding enrichment [15]: 0.811
- SH2 binding enrichment [16]: 0.708

Sequence: GGQDVYGDFGG [Probound]
- phosphorylation enrichment [1]: 0.905
- phosphorylation enrichment [2]: 0.837
- phosphorylation enrichment [3]: 0.573
- phosphorylation enrichment [4]: 0.883
- phosphorylation enrichment [5]: 8.36
- phosphorylation enrichment [6]: 0.718
- phosphorylation enrichment [7]: 5.08
- phosphorylation enrichment [8]: 5.41
- phosphorylation enrichment [9]: 0.562
- phosphorylation enrichment [10]: 0.527
- phosphorylation enrichment [11]: 0.748
- phosphorylation enrichment [12]: 0.498
- phosphorylation enrichment [13]: 0.939
- SH2 binding enrichment [14]: 0.509
- SH2 binding enrichment [15]: 0.803
- SH2 binding enrichment [16]: 0.79

Sequence: TLKDVCDDGKF [RPS6KA3_Y483_Y483C_YF]
- phosphorylation enrichment [1]: 0.873
- phosphorylation enrichment [2]: 1.1
- phosphorylation enrichment [3]: 0.601
- phosphorylation enrichment [4]: 0.545
- phosphorylation enrichment [5]: 0.446
- phosphorylation enrichment [6]: 0.555
- phosphorylation enrichment [7]: 0.433
- phosphorylation enrichment [8]: 0.427
- phosphorylation enrichment [9]: 0.498
- phosphorylation enrichment [10]: 0.583
- phosphorylation enrichment [11]: 1.03
- phosphorylation enrichment [12]: 0.523
- phosphorylation enrichment [13]: 0.885
- SH2 binding enrichment [14]: 0.66
- SH2 binding enrichment [15]: 1.16
- SH2 binding enrichment [16]: 0.809

Sequence: FGSLLYKYAFK [FANCD2_Y458]
- phosphorylation enrichment [1]: 0.858
- phosphorylation enrichment [2]: 1.04
- phosphorylation enrichment [3]: 0.684
- phosphorylation enrichment [4]: 0.391
- phosphorylation enrichment [5]: 0.366
- phosphorylation enrichment [6]: 0.468
- phosphorylation enrichment [7]: 0.392
- phosphorylation enrichment [8]: 0.379
- phosphorylation enrichment [9]: 0.433
- phosphorylation enrichment [10]: 0.352
- phosphorylation enrichment [11]: 0.839
- phosphorylation enrichment [12]: 0.324
- phosphorylation enrichment [13]: 0.627
- SH2 binding enrichment [14]: 0.485
- SH2 binding enrichment [15]: 0.922
- SH2 binding enrichment [16]: 0.731

Sequence: SMGMKYLEEKN [ZAP70_Y451]
- phosphorylation enrichment [1]: 0.727
- phosphorylation enrichment [2]: 0.879
- phosphorylation enrichment [3]: 0.506
- phosphorylation enrichment [4]: 0.463
- phosphorylation enrichment [5]: 0.7
- phosphorylation enrichment [6]: 0.518
- phosphorylation enrichment [7]: 0.434
- phosphorylation enrichment [8]: 0.398
- phosphorylation enrichment [9]: 0.383
- phosphorylation enrichment [10]: 0.493
- phosphorylation enrichment [11]: 0.717
- phosphorylation enrichment [12]: 0.454
- phosphorylation enrichment [13]: 0.644
- SH2 binding enrichment [14]: 0.638
- SH2 binding enrichment [15]: 0.962
- SH2 binding enrichment [16]: 0.86

Sequence: LLKKMYLMLDN [STAT1_Y203]
- phosphorylation enrichment [1]: 0.939
- phosphorylation enrichment [2]: 0.996
- phosphorylation enrichment [3]: 0.721
- phosphorylation enrichment [4]: 0.381
- phosphorylation enrichment [5]: 0.38
- phosphorylation enrichment [6]: 0.571
- phosphorylation enrichment [7]: 0.305
- phosphorylation enrichment [8]: 0.434
- phosphorylation enrichment [9]: 0.401
- phosphorylation enrichment [10]: 0.395
- phosphorylation enrichment [11]: 0.883
- phosphorylation enrichment [12]: 0.521
- phosphorylation enrichment [13]: 0.643
- SH2 binding enrichment [14]: 0.957
- SH2 binding enrichment [15]: 1.14
- SH2 binding enrichment [16]: 1.24

Sequence: HNVPICEGFAL [ACTC1_Y168_Y168C_YF]
- phosphorylation enrichment [1]: 1.15
- phosphorylation enrichment [2]: 1.29
- phosphorylation enrichment [3]: 0.947
- phosphorylation enrichment [4]: 0.704
- phosphorylation enrichment [5]: 0.75
- phosphorylation enrichment [6]: 0.729
- phosphorylation enrichment [7]: 0.621
- phosphorylation enrichment [8]: 0.708
- phosphorylation enrichment [9]: 0.673
- phosphorylation enrichment [10]: 0.849
- phosphorylation enrichment [11]: 1.1
- phosphorylation enrichment [12]: 0.59
- phosphorylation enrichment [13]: 1.06
- SH2 binding enrichment [14]: 0.555
- SH2 binding enrichment [15]: 0.871
- SH2 binding enrichment [16]: 1.16

Sequence: KTTILHKLKLG [ARF1_Y35_Y35H]
- phosphorylation enrichment [1]: 0.548
- phosphorylation enrichment [2]: 0.739
- phosphorylation enrichment [3]: 0.518
- phosphorylation enrichment [4]: 0.509
- phosphorylation enrichment [5]: 0.333
- phosphorylation enrichment [6]: 0.4
- phosphorylation enrichment [7]: 0.326
- phosphorylation enrichment [8]: 0.39
- phosphorylation enrichment [9]: 0.35
- phosphorylation enrichment [10]: 0.439
- phosphorylation enrichment [11]: 0.584
- phosphorylation enrichment [12]: 0.435
- phosphorylation enrichment [13]: 0.591
- SH2 binding enrichment [14]: 1.46
- SH2 binding enrichment [15]: 1.5
- SH2 binding enrichment [16]: 1.24

Further lines, with some results ahead:

- SH2 binding enrichment [14]: 0.591
- SH2 binding enrichment [15]: 0.951
- SH2 binding enrichment [16]: 1.04
Sequence: LEITWYPFDME [RIPOR2_Y316_V320M]
- phosphorylation enrichment [1]: 2.05
- phosphorylation enrichment [2]: 2.31
- phosphorylation enrichment [3]: 1.48
- phosphorylation enrichment [4]: 0.792
- phosphorylation enrichment [5]: 0.594
- phosphorylation enrichment [6]: 1.21
- phosphorylation enrichment [7]: 0.554
- phosphorylation enrichment [8]: 0.66
- phosphorylation enrichment [9]: 0.608
- phosphorylation enrichment [10]: 0.698
- phosphorylation enrichment [11]: 1.85
- phosphorylation enrichment [12]: 0.751
- phosphorylation enrichment [13]: 1.32

- SH2 binding enrichment [14]: 0.545
- SH2 binding enrichment [15]: 0.854
- SH2 binding enrichment [16]: 0.729
Sequence: TLQTMYGCDVG [HLA-B_Y123_S121T]
- phosphorylation enrichment [1]: 0.979
- phosphorylation enrichment [2]: 1.15
- phosphorylation enrichment [3]: 0.772
- phosphorylation enrichment [4]: 0.589
- phosphorylation enrichment [5]: 0.554
- phosphorylation enrichment [6]: 0.909
- phosphorylation enrichment [7]: 0.68
- phosphorylation enrichment [8]: 0.579
- phosphorylation enrichment [9]: 0.647
- phosphorylation enrichment [10]: 0.556
- phosphorylation enrichment [11]: 1.13
- phosphorylation enrichment [12]: 0.838
- phosphorylation enrichment [13]: 0.849

- SH2 binding enrichment [14]: 0.475
- SH2 binding enrichment [15]: 0.827
- SH2 binding enrichment [16]: 0.566
Sequence: LLSVAYKNVVR [YWHAZ_Y48_G53R]
- phosphorylation enrichment [1]: 1.1
- phosphorylation enrichment [2]: 1.34
- phosphorylation enrichment [3]: 0.853
- phosphorylation enrichment [4]: 0.88
- phosphorylation enrichment [5]: 0.762
- phosphorylation enrichment [6]: 0.874
- phosphorylation enrichment [7]: 0.743
- phosphorylation enrichment [8]: 0.477
- phosphorylation enrichment [9]: 0.689
- phosphorylation enrichment [10]: 1.03
- phosphorylation enrichment [11]: 1.28
- phosphorylation enrichment [12]: 0.55
- phosphorylation enrichment [13]: 1.2

- SH2 binding enrichment [14]: 17.2
- SH2 binding enrichment [15]: 0.772
- SH2 binding enrichment [16]: 0.426
Sequence: TETGRYEILTE
- phosphorylation enrichment [1]: 0.658
- phosphorylation enrichment [2]: 0.765
- phosphorylation enrichment [3]: 0.427
- phosphorylation enrichment [4]: 0.466
- phosphorylation enrichment [5]: 0.387
- phosphorylation enrichment [6]: 0.532
- phosphorylation enrichment [7]: 0.44
- phosphorylation enrichment [8]: 0.517
- phosphorylation enrichment [9]: 0.421
- phosphorylation enrichment [10]: 0.543
- phosphorylation enrichment [11]: 0.742
- phosphorylation enrichment [12]: 0.354
- phosphorylation enrichment [13]: 0.389

- SH2 binding enrichment [14]: 1.33
- SH2 binding enrichment [15]: 2.19
- SH2 binding enrichment [16]: 1.55
Sequence: KFVVVYFRETD [IL17RB_Y447_I451T_YF]
- phosphorylation enrichment [1]: 1.11
- phosphorylation enrichment [2]: 1.23
- phosphorylation enrichment [3]: 0.734
- phosphorylation enrichment [4]: 0.597
- phosphorylation enrichment [5]: 0.463
- phosphorylation enrichment [6]: 0.637
- phosphorylation enrichment [7]: 0.377
- phosphorylation enrichment [8]: 0.57
- phosphorylation enrichment [9]: 0.417
- phosphorylation enrichment [10]: 0.512
- phosphorylation enrichment [11]: 1.36
- phosphorylation enrichment [12]: 0.484
- phosphorylation enrichment [13]: 0.734

- SH2 binding enrichment [14]: 3.98
- SH2 binding enrichment [15]: 0.901
- SH2 binding enrichment [16]: 1.04
Sequence: NQDRTYYERVR [SPEN_Y632_S635R]
- phosphorylation enrichment [1]: 0.499
- phosphorylation enrichment [2]: 0.639
- phosphorylation enrichment [3]: 0.486
- phosphorylation enrichment [4]: 0.467
- phosphorylation enrichment [5]: 0.606
- phosphorylation enrichment [6]: 0.411
- phosphorylation enrichment [7]: 0.896
- phosphorylation enrichment [8]: 2.31
- phosphorylation enrichment [9]: 0.452
- phosphorylation enrichment [10]: 0.457
- phosphorylation enrichment [11]: 0.617
- phosphorylation enrichment [12]: 0.511
- phosphorylation enrichment [13]: 0.525

- SH2 binding enrichment [14]: 0.584
- SH2 binding enrichment [15]: 0.822
- SH2 binding enrichment [16]: 0.682
Sequence: NVFGNYNQQPS [HNRNPA2B1_Y306_D302V]
- phosphorylation enrichment [1]: 0.687
- phosphorylation enrichment [2]: 0.713
- phosphorylation enrichment [3]: 0.471
- phosphorylation enrichment [4]: 0.375
- phosphorylation enrichment [5]: 0.401
- phosphorylation enrichment [6]: 0.468
- phosphorylation enrichment [7]: 0.384
- phosphorylation enrichment [8]: 0.484
- phosphorylation enrichment [9]: 0.375
- phosphorylation enrichment [10]: 0.356
- phosphorylation enrichment [11]: 0.492
- phosphorylation enrichment [12]: 0.315
- phosphorylation enrichment [13]: 0.674
